Results as given in US20230250139A1 (MIT, published 2023).

B1: UBC-1POK(E239Y)-Linker7-HA-Linker3-Top7 (other)
chain: MIDYTAAGFTLLQGAHLYAPEDRGICDVLVANGKIIAVASNIPSDIVPNCTVVDLSGQILCPGFIDQHVHLIGGGGEAGPTTRTPEVALSRLTEAGVTSVVGLLGTDSISRHPESLLAKTRALNEEGISAWMLTGAYHVPSRTITGSVEKDVAIIDRVIGVKCAISDHRSAAPDVYHLANMAAESRVGGLLGGKPGVTVFHMGDSKKALQPIYDLLENCDVPISKLLPTHVNRNVPLFYQALEFARKGGTIDITSSIDEPVAPAEGIARAVQAGIPLARVTLSSDGNGSQPFFDDEGNLTHIGVAGFETLLETVQVLVKDYDFSISDALRPLTSSVAGFLNLTGKGEILPGNDADLLVMTPELRIEQVYARGKLMVKDGKACVKGTFETAGGSGGTGYPYDVPDYAGSGDIQVQVNIDDNGKNFDYTYTVTTESELQKVLNELKDYIKKQGAKRVRISITARTKKEAEKFAAILIKVFAELGYNDINVTWDGDTVTVEGQLE
B2: UBC-1POK(E239Y)-Linker25-HA-gsg-Top7 (other)
chain: MIDYTAAGFTLLQGAHLYAPEDRGICDVLVANGKIIAVASNIPSDIVPNCTVVDLSGQILCPGFIDQHVHLIGGGGEAGPTTRTPEVALSRLTEAGVTSVVGLLGTDSISRHPESLLAKTRALNEEGISAWMLTGAYHVPSRTITGSVEKDVAIIDRVIGVKCAISDHRSAAPDVYHLANMAAESRVGGLLGGKPGVTVFHMGDSKKALQPIYDLLENCDVPISKLLPTHVNRNVPLFYQALEFARKGGTIDITSSIDEPVAPAEGIARAVQAGIPLARVTLSSDGNGSQPFFDDEGNLTHIGVAGFETLLETVQVLVKDYDFSISDALRPLTSSVAGFLNLTGKGEILPGNDADLLVMTPELRIEQVYARGKLMVKDGKACVKGTFETAGGSGGTGGSGGTGGSGGTGGSGGTGYPYDVPDYAGSGDIQVQVNIDDNGKNFDYTYTVTTESELQKVLNELKDYIKKQGAKRVRISITARTKKEAEKFAAILIKVFAELGYNDINVTWDGDTVTVEGQLE
B3: UBC-1POK(E239Y)-Linker12-gg-HA (other)
chain: MIDYTAAGFTLLQGAHLYAPEDRGICDVLVANGKIIAVASNIPSDIVPNCTVVDLSGQILCPGFIDQHVHLIGGGGEAGPTTRTPEVALSRLTEAGVTSVVGLLGTDSISRHPESLLAKTRALNEEGISAWMLTGAYHVPSRTITGSVEKDVAIIDRVIGVKCAISDHRSAAPDVYHLANMAAESRVGGLLGGKPGVTVFHMGDSKKALQPIYDLLENCDVPISKLLPTHVNRNVPLFYQALEFARKGGTIDITSSIDEPVAPAEGIARAVQAGIPLARVTLSSDGNGSQPFFDDEGNLTHIGVAGFETLLETVQVLVKDYDFSISDALRPLTSSVAGFLNLTGKGEILPGNDADLLVMTPELRIEQVYARGKLMVKDGKACVKGTFETAGGSGGTGGSGGTGGYPYDVPDYA
B4: CMV-DHF40-Linker8-HA (other)
chain: MSSEKEELRERLVKICVELAKLKGDDTLKAAEAAEEAFRLVVLAAMLAGIDSSEVLELAIRLIKTCVVLAAMEGYDISEACRAAAEAFTRVAMAALRAGITSSLVLKAAIELIKECVLNAAVEGYDISEACRAAAEAFKRVAEAAKRAGITSLETLLRAIEEIRKRVEEAQREGNDISEACRQAAEEFRKKAEELKRRGDVGGSGGTGGYPYDVPDYA
B5: CMV-1POK(E239Y)-Linker8-HA (other)
chain: MIDYTAAGFTLLQGAHLYAPEDRGICDVLVANGKIIAVASNIPSDIVPNCTVVDLSGQILCPGFIDQHVHLIGGGGEAGPTTRTPEVALSRLTEAGVTSVVGLLGTDSISRHPESLLAKTRALNEEGISAWMLTGAYHVPSRTITGSVEKDVAIIDRVIGVKCAISDHRSAAPDVYHLANMAAESRVGGLLGGKPGVTVFHMGDSKKALQPIYDLLENCDVPISKLLPTHVNRNVPLFYQALEFARKGGTIDITSSIDEPVAPAEGIARAVQAGIPLARVTLSSDGNGSQPFFDDEGNLTHIGVAGFETLLETVQVLVKDYDFSISDALRPLTSSVAGFLNLTGKGEILPGNDADLLVMTPELRIEQVYARGKLMVKDGKACVKGTFETAGGSGGTGGYPYDVPDYA

Target: the molecule itself
Assay: self-assembly in cultured mouse hippocampal neurons; anti-HA immunofluorescence, confocal

Row | Protein | binding result
1 | B1 | binds
2 | B2 | binds
3 | B3 | binds
4 | B4 | binds
5 | B5 | binds
